Assay results: article PMC7847308, “Nanoscopic anatomy of dynamic multi-protein complexes at membranes resolved by graphene-induced energy transfer” (eLife, 2021)

Assays:
Settings in all cases: both partners purified
[1] = target: T1, HOPS complex with Vps39 C-terminally fused to yEGFP (S. cerevisiae, UniProt P38959 1-992; Q07468 1-1049; P12868 1-1029; P27801 1-918; Q03308 1-798; P20795 …); assay: confocal fluorescence imaging and FLIM of recruitment to supported lipid layers; 50 nM yEGFP-fused HOPS added for 5 min at room temperature to DOPC bilayers on glass or monolayers on graphene loaded with 150 nM pYpt7-GTP; washed 5 times with HBS
T1 construct: Vps41, HOPS subunit, S. cerevisiae; Vps39, HOPS subunit, S. cerevisiae; Vps11, HOPS subunit, S. cerevisiae; Vps18, HOPS subunit, S. cerevisiae; Vps16, HOPS subunit, S. cerevisiae; Vps33, HOPS subunit, S. cerevisiae; also called HOPS Vps39-yEGFP; yEGFP-tagged HOPS; source: S. cerevisiae, overexpressed, purified (IgG Sepharose, TEV elution); copies: + + + + +

[2] = target: T2, HOPS complex with Vps11 C-terminally fused to yEGFP (S. cerevisiae, UniProt P38959 1-992; Q07468 1-1049; P12868 1-1029; P27801 1-918; Q03308 1-798; P20795 …); assay: as above
T2 construct: Vps41, HOPS subunit, S. cerevisiae; Vps39, HOPS subunit, S. cerevisiae; Vps11, HOPS subunit, S. cerevisiae; Vps18, HOPS subunit, S. cerevisiae; Vps16, HOPS subunit, S. cerevisiae; Vps33, HOPS subunit, S. cerevisiae; In the single-molecule experiment labelled with 50 pM Dy647-coupled anti-GFP nanobody; also called HOPS Vps11-yEGFP; HOPS Vps11; source: S. cerevisiae, overexpressed, purified (IgG …)

[3] = target: T3, HOPS complex with Vps16 C-terminally fused to yEGFP (S. cerevisiae, UniProt P38959 1-992; Q07468 1-1049; P12868 1-1029; P27801 1-918; Q03308 1-798; P20795 …); assay: as above
T3 construct: Vps41, HOPS subunit, S. cerevisiae; Vps39, HOPS subunit, S. cerevisiae; Vps11, HOPS subunit, S. cerevisiae; Vps18, HOPS subunit, S. cerevisiae; Vps16, HOPS subunit, S. cerevisiae; Vps33, HOPS subunit, S. cerevisiae; also called HOPS Vps16-yEGFP; HOPS (Vps16-yEGFP); source: S. cerevisiae, overexpressed, purified (IgG Sepharose, TEV elution); copies: + + + + +

[4] = target: T4, HOPS complex with Vps33 C-terminally fused to yEGFP (S. cerevisiae, UniProt P38959 1-992; Q07468 1-1049; P12868 1-1029; P27801 1-918; Q03308 1-798; P20795 …); assay: as above
T4 construct: Vps41, HOPS subunit, S. cerevisiae; Vps39, HOPS subunit, S. cerevisiae; Vps11, HOPS subunit, S. cerevisiae; Vps18, HOPS subunit, S. cerevisiae; Vps16, HOPS subunit, S. cerevisiae; Vps33, HOPS subunit, S. cerevisiae; In the single-molecule experiment labelled with 50 pM Dy647-coupled anti-GFP nanobody; also called HOPS Vps33-yEGFP; HOPS Vps33; source: S. cerevisiae, overexpressed, purified (IgG …)

[5] = target: T5, HOPS complex with Vps18 C-terminally fused to yEGFP (S. cerevisiae, UniProt P38959 1-992; Q07468 1-1049; P12868 1-1029; P27801 1-918; Q03308 1-798; P20795 …); assay: as above
T5 construct: Vps41, HOPS subunit, S. cerevisiae; Vps39, HOPS subunit, S. cerevisiae; Vps11, HOPS subunit, S. cerevisiae; Vps18, HOPS subunit, S. cerevisiae; Vps16, HOPS subunit, S. cerevisiae; Vps33, HOPS subunit, S. cerevisiae; also called HOPS Vps18-yEGFP; yEGFP-tagged HOPS; source: S. cerevisiae, overexpressed, purified (IgG Sepharose, TEV elution); copies: + + + + +

Mon1-Ccz1 complex = target: T6, Mon1-Ccz1 complex (S. cerevisiae, UniProt P53129 1-644; P38273 1-704); assay: GIET fluorescence lifetime (FLIM) on graphene-supported lipid monolayers; 200 nM mNeon-pYpt7-GTP anchored in lipid layers on graphene and glass; 100 nM Mon1-Ccz1 or HOPS added for 5 min at room temperature, washed 8 times with HBS; lifetime ratio of mNeon
T6 construct: Mon1, S. cerevisiae; chromosomal locus under the GAL1 promoter; Ccz1, S. cerevisiae; chromosomal locus under the GAL1 promoter, TAP-tagged; Eluted from IgG beads by TEV cleavage; also called GEF; source: S. cerevisiae, overexpressed, purified (IgG Sepharose, TEV elution)
T6 sequence (looked up) 1: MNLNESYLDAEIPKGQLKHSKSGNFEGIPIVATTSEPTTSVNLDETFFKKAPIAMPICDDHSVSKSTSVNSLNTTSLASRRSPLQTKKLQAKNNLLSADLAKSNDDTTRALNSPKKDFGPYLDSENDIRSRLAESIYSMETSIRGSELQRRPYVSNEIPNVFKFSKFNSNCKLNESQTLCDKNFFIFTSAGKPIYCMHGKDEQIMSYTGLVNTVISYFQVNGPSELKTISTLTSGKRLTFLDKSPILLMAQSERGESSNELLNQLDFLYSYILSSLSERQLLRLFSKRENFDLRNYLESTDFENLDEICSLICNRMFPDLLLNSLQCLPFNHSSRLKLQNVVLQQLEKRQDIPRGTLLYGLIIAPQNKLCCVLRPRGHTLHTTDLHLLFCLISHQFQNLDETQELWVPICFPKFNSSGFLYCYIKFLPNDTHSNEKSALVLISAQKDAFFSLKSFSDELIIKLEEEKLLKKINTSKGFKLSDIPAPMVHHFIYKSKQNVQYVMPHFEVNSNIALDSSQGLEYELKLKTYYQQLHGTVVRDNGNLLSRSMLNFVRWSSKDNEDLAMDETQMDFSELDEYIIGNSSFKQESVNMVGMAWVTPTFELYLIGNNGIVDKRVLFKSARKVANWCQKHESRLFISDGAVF
T6 sequence (looked up) 2: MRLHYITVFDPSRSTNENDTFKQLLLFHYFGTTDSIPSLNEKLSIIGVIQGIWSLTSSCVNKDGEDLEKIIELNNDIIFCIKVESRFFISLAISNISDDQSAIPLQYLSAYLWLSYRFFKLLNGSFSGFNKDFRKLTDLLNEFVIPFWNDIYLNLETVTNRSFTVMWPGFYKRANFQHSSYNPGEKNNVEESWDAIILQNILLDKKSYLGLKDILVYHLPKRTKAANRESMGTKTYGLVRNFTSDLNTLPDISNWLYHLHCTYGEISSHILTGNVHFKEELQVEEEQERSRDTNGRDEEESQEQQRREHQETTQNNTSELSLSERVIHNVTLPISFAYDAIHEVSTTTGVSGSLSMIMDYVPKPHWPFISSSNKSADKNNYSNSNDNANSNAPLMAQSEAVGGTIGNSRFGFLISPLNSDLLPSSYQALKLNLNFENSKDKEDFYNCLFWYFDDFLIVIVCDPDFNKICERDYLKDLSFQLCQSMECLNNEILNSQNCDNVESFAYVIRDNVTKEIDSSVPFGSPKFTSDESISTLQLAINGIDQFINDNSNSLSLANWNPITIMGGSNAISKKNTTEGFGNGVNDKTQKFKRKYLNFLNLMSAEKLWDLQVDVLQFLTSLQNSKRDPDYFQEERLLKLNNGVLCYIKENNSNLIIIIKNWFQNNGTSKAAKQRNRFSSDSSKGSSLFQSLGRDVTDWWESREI

HOPS complex = target: T7, HOPS complex (S. cerevisiae, UniProt P38959 1-992; Q07468 1-1049; P12868 1-1029; P27801 1-918; Q03308 1-798; P20795 …); assay: FRAP and confocal imaging on supported lipid bilayers; 200 nM mNeon-pYpt7-GTP anchored in glass-supported lipid bilayers, 100 nM HOPS added; room temperature
T7 construct: Vps41, HOPS subunit, S. cerevisiae; Vps39, HOPS subunit, S. cerevisiae; Vps11, HOPS subunit, S. cerevisiae; Vps18, HOPS subunit, S. cerevisiae; Vps16, HOPS subunit, S. cerevisiae; Vps33, HOPS subunit, S. cerevisiae; 650 kDa heterohexamer; the 3HA follows the GAL1 promoter in the genotype; also called homotypic fusion and vacuole protein sorting complex; untagged HOPS; source: S. cerevisiae, …

Measured: binding result

B1: prenylated Ypt7 (natural protein, S. cerevisiae, UniProt P32939 1-208, looked up)
chain: MSSRKKNILKVIILGDSGVGKTSLMHRYVNDKYSQQYKATIGADFLTKEVTVDGDKVATMQVWDTAGQERFQSLGVAFYRGADCCVLVYDVTNASSFENIKSWRDEFLVHANVNSPETFPFVILGNKIDAEESKKIVSEKSAQELAKSLGDIPLFLTSAKNAINVDTAFEEIARSALQQNQADTEAFEDDYNDAINIRLDGENNSCSC
modifications: C-terminal prenyl (geranylgeranyl) group, added by in vitro prenylation
notes: Ypt7, Rab7-like GTPase of S. cerevisiae; pET24d-GST-TEV-Ypt7 is surmised (the other construct carries a C-terminal His6 tag); GDP-loaded with GDI, GTP-loaded on membranes; also called pYpt7; pYpt7-GTP; source: E. coli BL21 (DE3) Rosetta, purified, prenylated in vitro
not listed: Mon1-Ccz1 complex | HOPS complex
binds: all other assays above

B2: prenylated mNeonGreen-Ypt7 (natural protein, S. cerevisiae, UniProt P32939 1-208, looked up)
chain: B1 chain
modifications: C-terminal prenyl (geranylgeranyl) group, added by in vitro prenylation
notes: Ypt7, Rab7-like GTPase of S. cerevisiae; GDP-loaded in the complex with GDI; GTP-loaded when anchored in the lipid layers; also called mNeon-pYpt7; mNeon-Ypt7; source: E. coli BL21 (DE3) Rosetta, purified (Glutathione Sepharose, TEV cleavage), prenylated in vitro; not shown: mNeonGreen (via a GGSGx3 linker), N-terminal, kept
binds: Mon1-Ccz1 complex | HOPS complex
